Experimental data from patent US5849585.

Target: receptors for heregulin on rat Schwann cell lines (ESC and ASC)

- half-maximal response, growth of rat ESC and ASC Schwann cell lines: 1 to 2 nM
Substance: recombinant human heregulin-β1 177-244 fragment (from UniProt Q02297) (ligand)
